Test results from paper PMC10119634 (Blood Advances, 2022).

Biological target: T1, GPVIex (nonglycosylated human GPVI extracellular domain residues 1 to 183) (Homo sapiens)
T1 chain: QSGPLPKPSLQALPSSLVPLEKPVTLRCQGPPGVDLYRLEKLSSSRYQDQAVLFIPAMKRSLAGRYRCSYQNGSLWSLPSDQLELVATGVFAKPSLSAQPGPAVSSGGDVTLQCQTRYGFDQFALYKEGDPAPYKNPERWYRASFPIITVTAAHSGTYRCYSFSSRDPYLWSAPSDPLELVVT
Assay: crystal structure

B1: Glenzocimab (Fab, V domains shown)
VH: QVQLVQSGAEVKKPGASVKVSCKASGYTFTSYNMHWVRQAPGQGLEWMGGIYPGNGDTSYNQKFQGRVTMTRDTSTSTVYMELSSLRSEDTAVYYCARGTVVGDWYFDVWGQGTLVTVSS
VL: DIQMTQSPSSLSASVGDRVTITCRSSQSLENSNGNTYLNWYQQKPGKAPKLLIYRVSNRFSGVPSRFSGSGSGTDFTFTISSLQPEDIATYYCLQLTHVPWTFGQGTKVEIT
B1: binds.
